Test results taken from US20160009824A1 (Merck KGaA, published 2016).
One block for each binder: values may come before it.

Assays:
[1] = target: T1, CD20 expressed on cells (human Daudi Burkitt's lymphoma cells); CD20-transfected mouse NS0 cells; human … (human, UniProt P11836 1-297); experiment: flow cytometry on CD20-expressing cells (Daudi by legend paragraph 36 and paragraph 140; the method paragraph 139 names Ramos), detection with TRITC F(ab')2 goat anti-human IgG Fcγ
T1 construct: whole, on cells; SU-DHL4 cells also express CD47 at low levels; also called NS0/CD20
T1 sequence (looked up): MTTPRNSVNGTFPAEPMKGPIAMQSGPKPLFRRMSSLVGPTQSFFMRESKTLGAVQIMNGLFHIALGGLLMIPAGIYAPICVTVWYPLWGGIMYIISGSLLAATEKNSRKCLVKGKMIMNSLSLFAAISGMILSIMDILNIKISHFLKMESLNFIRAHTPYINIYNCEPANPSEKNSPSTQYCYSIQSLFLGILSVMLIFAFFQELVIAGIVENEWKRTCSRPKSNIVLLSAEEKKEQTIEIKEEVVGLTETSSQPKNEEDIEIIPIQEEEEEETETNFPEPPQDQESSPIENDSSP

[2] = target: FcγRIII (CD16) on NK cells (human, UniProt P08637 17-254); experiment: cell-based or functional assay
[3] = target: T1, CD20 expressed on cells (human Daudi …); experiment: flow cytometry on CD20-transfected NS0 cells, detection with TRITC F(ab')2 goat anti-human IgG Fcγ
[4] = target: T2, CD47 expressed on cells (human U937 histiocytic lymphoma cells; human SU-DHL4 cells; human A431 cells) (human, UniProt Q08722 19-323); experiment: flow cytometry on U937 cells (CD47+, CD20-), detection with TRITC F(ab')2 goat anti-human IgG Fcγ
T2 construct: whole, on cells

[5] = target: T1, CD20 expressed on cells (human Daudi …); experiment: flow cytometry on Daudi cells (CD20+, CD52-), detection with TRITC F(ab')2 goat anti-human IgG Fcγ

Sequence of FcγRIII (CD16) on NK cells (P08637 17-254): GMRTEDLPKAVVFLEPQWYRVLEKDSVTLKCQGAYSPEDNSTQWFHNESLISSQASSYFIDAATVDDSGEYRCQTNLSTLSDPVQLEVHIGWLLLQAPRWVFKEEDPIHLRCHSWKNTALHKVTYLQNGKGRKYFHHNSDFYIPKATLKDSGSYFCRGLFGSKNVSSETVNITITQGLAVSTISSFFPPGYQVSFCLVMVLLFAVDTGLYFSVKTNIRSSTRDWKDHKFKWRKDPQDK

EC50 (read off the curve) [1]: ~3 µg/mL
B1: anti-CD20/anti-CD16 TetBiAb (bispecific antibody)
chain: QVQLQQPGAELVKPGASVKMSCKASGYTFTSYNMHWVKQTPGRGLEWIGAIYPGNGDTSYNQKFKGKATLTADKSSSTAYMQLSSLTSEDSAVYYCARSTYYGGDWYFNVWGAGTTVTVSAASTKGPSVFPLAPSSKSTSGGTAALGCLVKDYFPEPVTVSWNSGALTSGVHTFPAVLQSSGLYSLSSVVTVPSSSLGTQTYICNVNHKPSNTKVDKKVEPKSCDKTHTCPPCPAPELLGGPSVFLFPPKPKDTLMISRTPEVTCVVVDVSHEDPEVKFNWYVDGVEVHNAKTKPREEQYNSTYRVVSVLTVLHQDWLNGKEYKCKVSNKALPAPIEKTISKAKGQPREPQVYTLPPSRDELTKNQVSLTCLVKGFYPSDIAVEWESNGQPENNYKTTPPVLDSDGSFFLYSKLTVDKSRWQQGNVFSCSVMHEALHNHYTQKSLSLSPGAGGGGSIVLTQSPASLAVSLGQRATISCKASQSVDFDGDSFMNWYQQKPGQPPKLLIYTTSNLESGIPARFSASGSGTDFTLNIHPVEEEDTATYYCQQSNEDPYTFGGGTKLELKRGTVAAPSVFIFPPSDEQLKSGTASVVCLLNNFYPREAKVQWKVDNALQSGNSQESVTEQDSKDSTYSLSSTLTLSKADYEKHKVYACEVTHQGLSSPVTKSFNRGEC
light: QIVLSQSPAILSASPGEKVTMTCRASSSVSYIHWFQQKPGSSPKPWIYATSNLASGVPVRFSGSGSGTSYSLTISRVEAEDAATYYCQQWTSNPPTFGGGTKLEIKRGTVAAPSVFIFPPSDEQLKSGTASVVCLLNNFYPREAKVQWKVDNALQSGNSQESVTEQDSKDSTYSLSSTLTLSKADYEKHKVYACEVTHQGLSSPVTKSFNRGEC
heavy: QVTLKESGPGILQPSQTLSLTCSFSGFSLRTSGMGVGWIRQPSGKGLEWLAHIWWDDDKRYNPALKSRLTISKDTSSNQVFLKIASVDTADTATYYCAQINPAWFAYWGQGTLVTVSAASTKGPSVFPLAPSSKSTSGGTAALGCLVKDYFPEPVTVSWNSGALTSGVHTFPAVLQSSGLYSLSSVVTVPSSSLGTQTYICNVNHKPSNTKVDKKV
notes: Hexameric TetBiAb from 2B8 and 3G8, IgG1 Fc
antibody-dependent cell-mediated cytotoxicity (ADCC), LDH release from Ramos cells with NK effector cells [2]: 10 fold

binding result [3]: binds
EC50 (read off the curve) [4]: ~10 µg/mL
B2: anti-CD20/anti-CD47 TetBiAb (bispecific antibody, human IgG1, kappa)
chain: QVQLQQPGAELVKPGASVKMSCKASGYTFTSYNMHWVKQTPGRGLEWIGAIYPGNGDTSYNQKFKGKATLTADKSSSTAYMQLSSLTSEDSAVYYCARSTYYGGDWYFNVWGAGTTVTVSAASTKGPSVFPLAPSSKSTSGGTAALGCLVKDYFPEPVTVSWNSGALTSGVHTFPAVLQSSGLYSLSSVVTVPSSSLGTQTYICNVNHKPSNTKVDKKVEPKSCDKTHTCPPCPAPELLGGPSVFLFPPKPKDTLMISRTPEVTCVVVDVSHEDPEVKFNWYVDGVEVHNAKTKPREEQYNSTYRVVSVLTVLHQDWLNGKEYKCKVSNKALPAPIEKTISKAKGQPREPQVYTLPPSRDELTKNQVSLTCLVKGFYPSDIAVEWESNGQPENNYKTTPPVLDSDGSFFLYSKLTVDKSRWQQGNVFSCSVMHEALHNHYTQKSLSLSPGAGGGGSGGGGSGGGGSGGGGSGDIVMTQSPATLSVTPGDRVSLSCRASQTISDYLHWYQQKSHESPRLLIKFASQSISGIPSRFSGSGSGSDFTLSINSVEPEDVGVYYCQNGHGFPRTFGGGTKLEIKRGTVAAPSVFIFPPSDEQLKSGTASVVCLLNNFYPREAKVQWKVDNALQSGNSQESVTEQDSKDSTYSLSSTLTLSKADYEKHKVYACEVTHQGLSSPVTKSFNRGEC
light: QIVLSQSPAILSASPGEKVTMTCRASSSVSYIHWFQQKPGSSPKPWIYATSNLASGVPVRFSGSGSGTSYSLTISRVEAEDAATYYCQQWTSNPPTFGGGTKLEIKRGTVAAPSVFIFPPSDEQLKSGTASVVCLLNNFYPREAKVQWKVDNALQSGNSQESVTEQDSKDSTYSLSSTLTLSKADYEKHKVYACEVTHQGLSSPVTKSFNRGEC
heavy: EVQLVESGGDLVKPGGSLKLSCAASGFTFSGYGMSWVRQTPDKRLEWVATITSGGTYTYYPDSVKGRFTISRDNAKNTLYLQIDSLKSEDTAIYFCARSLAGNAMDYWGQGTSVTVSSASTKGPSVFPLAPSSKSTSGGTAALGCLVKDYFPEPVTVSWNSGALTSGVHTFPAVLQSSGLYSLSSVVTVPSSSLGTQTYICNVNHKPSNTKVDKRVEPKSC
notes: Hexameric TetBiAb from 2B8 and B6H12, IgG1 Fc; Alexa 488-labelled in the SU-DHL4 assay

EC50 (read off the curve) [5]: ~5 µg/mL
B3: anti-CD20/anti-CD52 TetBiAb (bispecific antibody, human IgG1, kappa)
chain: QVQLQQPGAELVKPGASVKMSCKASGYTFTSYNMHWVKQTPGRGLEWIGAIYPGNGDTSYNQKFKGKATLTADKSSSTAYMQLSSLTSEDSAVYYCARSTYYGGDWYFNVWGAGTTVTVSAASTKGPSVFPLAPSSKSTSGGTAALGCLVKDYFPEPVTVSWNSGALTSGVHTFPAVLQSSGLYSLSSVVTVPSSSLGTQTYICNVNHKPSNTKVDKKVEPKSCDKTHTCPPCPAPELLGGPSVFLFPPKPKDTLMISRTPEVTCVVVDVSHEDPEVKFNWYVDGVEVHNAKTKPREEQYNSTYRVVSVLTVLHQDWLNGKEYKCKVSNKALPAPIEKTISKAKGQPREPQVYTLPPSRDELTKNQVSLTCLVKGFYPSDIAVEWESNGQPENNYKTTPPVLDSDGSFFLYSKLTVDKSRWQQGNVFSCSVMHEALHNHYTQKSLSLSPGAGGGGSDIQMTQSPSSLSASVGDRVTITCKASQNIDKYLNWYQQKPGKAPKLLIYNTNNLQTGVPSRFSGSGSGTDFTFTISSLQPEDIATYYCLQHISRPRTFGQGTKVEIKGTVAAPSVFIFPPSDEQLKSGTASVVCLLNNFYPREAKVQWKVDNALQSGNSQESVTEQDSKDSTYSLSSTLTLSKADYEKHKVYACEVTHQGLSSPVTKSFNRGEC
light: QIVLSQSPAILSASPGEKVTMTCRASSSVSYIHWFQQKPGSSPKPWIYATSNLASGVPVRFSGSGSGTSYSLTISRVEAEDAATYYCQQWTSNPPTFGGGTKLEIKRGTVAAPSVFIFPPSDEQLKSGTASVVCLLNNFYPREAKVQWKVDNALQSGNSQESVTEQDSKDSTYSLSSTLTLSKADYEKHKVYACEVTHQGLSSPVTKSFNRGEC
heavy: QVQLQESGPGLVRPSQTLSLTCTVSGFTFTDFYMNWVRQPPGRGLEWIGFIRDKAKGYTTEYNPSVKGRVTMLVDTSKNQFSLRLSSVTAADTAVYYCAREGHTAAPFDYWGQGSLVTVSAASTKGPSVFPLAPSSKSTSGGTAALGCLVKDYFPEPVTVSWNSGALTSGVHTFPAVLQSSGLYSLSSVVTVPSSSLGTQTYICNVNHKPSNTKVDKKVEPKSC
notes: Hexameric TetBiAb from 2B8 and Campath, IgG1 Fc

binding result [5]: no binding (tested: 100 µg/ml)
B4: anti-CD52/anti-CD20 TetBiAb (bispecific antibody, human IgG1, kappa)
chain: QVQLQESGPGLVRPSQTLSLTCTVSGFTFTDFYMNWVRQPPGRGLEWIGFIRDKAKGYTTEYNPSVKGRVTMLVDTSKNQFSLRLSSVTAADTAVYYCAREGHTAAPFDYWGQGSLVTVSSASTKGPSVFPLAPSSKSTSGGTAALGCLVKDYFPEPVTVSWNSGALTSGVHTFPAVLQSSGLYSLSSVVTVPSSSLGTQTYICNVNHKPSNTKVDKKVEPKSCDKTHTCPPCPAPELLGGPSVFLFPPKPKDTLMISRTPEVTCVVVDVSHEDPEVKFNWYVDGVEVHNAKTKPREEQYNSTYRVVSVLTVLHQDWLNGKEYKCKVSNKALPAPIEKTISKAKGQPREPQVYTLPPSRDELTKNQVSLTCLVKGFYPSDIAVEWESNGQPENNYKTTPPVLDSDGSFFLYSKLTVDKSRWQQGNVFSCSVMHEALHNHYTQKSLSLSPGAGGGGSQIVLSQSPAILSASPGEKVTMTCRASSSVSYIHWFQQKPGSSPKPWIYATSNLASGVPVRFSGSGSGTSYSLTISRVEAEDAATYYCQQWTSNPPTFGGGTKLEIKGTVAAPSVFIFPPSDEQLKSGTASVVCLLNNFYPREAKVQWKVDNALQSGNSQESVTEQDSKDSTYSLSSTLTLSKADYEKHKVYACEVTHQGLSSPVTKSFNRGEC
light: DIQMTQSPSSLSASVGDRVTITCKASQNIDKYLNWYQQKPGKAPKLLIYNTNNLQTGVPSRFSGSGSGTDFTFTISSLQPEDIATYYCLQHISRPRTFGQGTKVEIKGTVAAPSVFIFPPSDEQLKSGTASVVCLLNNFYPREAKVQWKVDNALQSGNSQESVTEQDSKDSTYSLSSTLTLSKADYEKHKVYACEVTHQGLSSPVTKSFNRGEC
heavy: QVQLQQPGAELVKPGASVKMSCKASGYTFTSYNMHWVKQTPGRGLEWIGAIYPGNGDTSYNQKFKGKATLTADKSSSTAYMQLSSLTSEDSAVYYCARSTYYGGDWYFNVWGAGTTVTVSAASTKGPSVFPLAPSSKSTSGGTAALGCLVKDYFPEPVTVSWNSGALTSGVHTFPAVLQSSGLYSLSSVVTVPSSSLGTQTYICNVNHKPSNTKVDKKVEPKSC
notes: Hexameric TetBiAb from Campath and 2B8, IgG1 Fc
